This is an account of results in publication PMC4752584, “The C repressor of the P2 bacteriophage” (Journal of Biomolecular Nmr, 2015).

The data set deals with the molecule itself. Briefly: NMR solution structure; 13C,15N-labelled P2 C at 6 mg/ml in 10 mM Na-phosphate pH 7.0, 150 mM NaCl, 10 % D2O; 13C- and 15N-NOESY-HSQC, 150 ms mixing time, 310 K, 900 MHz; CYANA2.1; homodimer interface found with aid from the crystal structure 2XCJ.

B1: C-repressor of bacteriophage P2 (natural protein)
chain: MSNTISEKIVLMRKSEYLSRQQLADLTGVPYGTLSYYESGRSTPPTDVMMNILQTPQFTKYTLWFMTNQIAPEFGQIAPALAHFGQNETTSPHSGQKTG
notes: C repressor of bacteriophage P2, a 99 amino acid protein; wildtype; signals of residues up to 99 are reported; Uniformly 13C,15N labelled for the structure (grown in M9 with 13C-glucose and 15N-NH4Cl); No tag is mentioned; also called P2 C; P2C; source: E. coli BL21(DE3) with plasmid pEE679, purified (DEAE flow-through, HiTrap Heparin, Superdex 200)
For the protein B1, the binding result was “binds”.
